These results are taken from the supplement of paper PMC7877785.

± gives the uncertainty stated by the source.

This series can be described thus: self-splicing fitness, log relative to wild type (ln ratio); higher = more splicing; Tetrahymena group I intron in knt gene, E. coli kanamycin selection, DiMSum; sequences stand for … in CUCUCU…GGAGGGAAAAGUUAUCAGGCAUGCACCUGGUAGCUAGUCUUUAAACCAAUAGAUUGCAUCGGUUUAAAAGGCAAGACCGUCAAAUUGCGGGAAAGGGGUCAACAGCCGUUCAGUACCAAGUCUCAGGGGAAACUUUGAGAUGGCCUUGCAAAGGGUAUGGUAAUAAGCUGACGGACAUGGUCCUAACCACGCAGCCAAGUCCUAAGUCAACAGAUCUUCUGUUGAUAUGGAUGCAGUUCACAGACUAAAUGUCGGUCGGGGAAGAUGUAUUCUUCUCAUAAGAUAUAGUCGGACCUCUCCUUAAUGGGAGCUAGCGGAUGAAGUGAUGCAACACUGGAGCCGCUGGGAACUAAUUUGUAUGCGAAAGUAUAUUGAUUAGUUUUGGAGUACUCGUGGUCG
An outline of the steps:
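Six replicate transformations of E. coli BL21(DE3) with a pET-22b(+) library were grown overnight at 37°C or 30°C. The library randomised all eight P1ex-region intron nucleotides, the intron lying in the knt kanamycin-resistance gene, and plates were LB agar with or without 25 μg/mL kanamycin plus 100 μg/mL carbenicillin, 50 μM IPTG and 0.2% rhamnose. Pooled colonies were amplicon-sequenced on an Illumina HiSeq 2500, and fitness is the DiMSum error-weighted combination of wild-type-normalised replicate fold changes, kanamycin versus none.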

As for AAGGAGCAAUAUUACGAAUA, the “self-splicing fitness (ln)” value reads like this: (30 °C) -2.18 ± 0.27; (37 °C) -2.77 ± 0.38.
As for GUAGAGCAAUAUUACGGCAC, the “self-splicing fitness (ln)” value (30 °C) is -0.941 ± 0.4.
Take AUCCAGCAAUAUUACGCCAC: the “self-splicing fitness (ln)” value by setting is: (30 °C) -2.03 ± 0.18; (37 °C) -2.5 ± 0.2.
CGUCAGCAAUAUUACGUGAC: the “self-splicing fitness (ln)” value was -3.29 ± 0.18 (30 °C) and -2.82 ± 0.23 (37 °C).
On the same counts, the results for CGUUAGCAAUAUUACGGUAG are -0.514 ± 0.097 and -0.104 ± 0.11.
GCUCAGCAAUAUUACGUAGA: the “self-splicing fitness (ln)” value is -0.134 ± 0.073 (30 °C) and -0.191 ± 0.084 (37 °C).
On the same counts, the results for CGGCAGCAAUAUUACGGGAA are -2.49 ± 0.15 and -1.97 ± 0.16.
Consider AGACAGCAAUAUUACGUAAA, for which the “self-splicing fitness (ln)” value by setting is: (30 °C) -2.15 ± 0.072; (37 °C) -1.05 ± 0.08.
On the same counts, the results for ACAAAGCAAUAUUACGGAUG are -1.59 ± 0.087 and -1.08 ± 0.1.
Taken in the same sequence, the figures for GAUCAGCAAUAUUACGAGCG were -1.37 ± 0.08 and -0.0351 ± 0.097.
As to CACGAGCAAUAUUACGUCUG, the “self-splicing fitness (ln)” value is -2.32 ± 0.095 (30 °C) and -0.929 ± 0.092 (37 °C).
On the same counts, the results for GGCUAGCAAUAUUACGUUCA are -0.464 ± 0.094 and 0.156 ± 0.11.
Take GUGGAGCAAUAUUACGAUCU: the “self-splicing fitness (ln)” value (30 °C) was -2.68 ± 0.15 and the “self-splicing fitness (ln)” value (37 °C) was -2.6 ± 0.22.
Taken in the same sequence, the figures for GGCGAGCAAUAUUACGUGAG were -3.25 ± 0.18 and -2.57 ± 0.2.
Taken in the same sequence, the figures for CAUAAGCAAUAUUACGAUUC were -3.25 ± 0.2 and -3.11 ± 0.26.
With UACGAGCAAUAUUACGAUUC, the “self-splicing fitness (ln)” value is, setting by setting: (30 °C) -3.01 ± 0.28; (37 °C) -2.83 ± 0.3.
With GGUUAGCAAUAUUACGCGGC, the “self-splicing fitness (ln)” value (30 °C) is -2.62 ± 0.29.
Take UGGUAGCAAUAUUACGCGCA: the “self-splicing fitness (ln)” value is -0.453 ± 0.1 (30 °C) and 0.351 ± 0.11 (37 °C).
On the same counts, the results for CUAAAGCAAUAUUACGCUAU are -4.21 ± 0.31 and -2.75 ± 0.3.
Regarding ACUUAGCAAUAUUACGCCGU, the “self-splicing fitness (ln)” value (30 °C) is -2.28 ± 0.24 and the “self-splicing fitness (ln)” value (37 °C) was -1.11 ± 0.23.
Consider CCGGAGCAAUAUUACGCUGU, for which the “self-splicing fitness (ln)” value (30 °C) was -4.31 ± 0.34 and the “self-splicing fitness (ln)” value (37 °C) was -2.4 ± 0.4.
Taken in the same sequence, the figures for UACCAGCAAUAUUACGAGGA were -1.63 ± 0.14 and -1.24 ± 0.12.
Turning to CAUCAGCAAUAUUACGCGCA, the “self-splicing fitness (ln)” value by setting is: (30 °C) -1.21 ± 0.1; (37 °C) -0.493 ± 0.12.
Taken in the same sequence, the figures for AUGAAGCAAUAUUACGGACU were 0.892 ± 0.12 and 0.27 ± 0.1.
Take GCGCAGCAAUAUUACGCCGG: the “self-splicing fitness (ln)” value is, setting by setting: (30 °C) -2.75 ± 0.25; (37 °C) -1.57 ± 0.31.
In the case of GCGGAGCAAUAUUACGUAGA, the “self-splicing fitness (ln)” value was -3.84 ± 0.43 (30 °C) and -2.24 ± 0.35 (37 °C).
On the same counts, the results for AGGCAGCAAUAUUACGAUGU are -2.41 ± 0.094 and -0.487 ± 0.1.
Taken in the same sequence, the figures for AUCCAGCAAUAUUACGGCAC were -0.153 ± 0.085 and -0.31 ± 0.099.
Consider AAGGAGCAAUAUUACGGUUG, for which the “self-splicing fitness (ln)” value is, setting by setting: (30 °C) -2.52 ± 0.17; (37 °C) -3.27 ± 0.32.
Taken in the same sequence, the figures for AUGAAGCAAUAUUACGCCUG were -0.59 ± 0.092 and -0.209 ± 0.11.
On the same counts, the results for UCCAAGCAAUAUUACGCAUG are -4.8 ± 0.31 and -2.27 ± 0.19.
For UUUUAGCAAUAUUACGACCG, the “self-splicing fitness (ln)” value by setting is: (30 °C) 1.81 ± 0.28; (37 °C) -1.19 ± 0.4.
On the same counts, the results for CAUCAGCAAUAUUACGGCGA are -3.11 ± 0.28 and -1.27 ± 0.15.
Regarding AUGCAGCAAUAUUACGAACG, the “self-splicing fitness (ln)” value runs as follows: (30 °C) -1.7 ± 0.16; (37 °C) -0.0769 ± 0.12.
On the same counts, the results for AUAUAGCAAUAUUACGUUAU are -3.02 ± 0.13 and -1.65 ± 0.12.
Consider GGAAAGCAAUAUUACGGUUG, for which the “self-splicing fitness (ln)” value (37 °C) is -1.2 ± 0.26.
With UGGGAGCAAUAUUACGGAUA, the “self-splicing fitness (ln)” value is -2.61 ± 0.32 (30 °C) and -2.52 ± 0.32 (37 °C).
For AGCUAGCAAUAUUACGCAAC, the “self-splicing fitness (ln)” value is -3.6 ± 0.35 (30 °C) and -1.86 ± 0.32 (37 °C).
Taken in the same sequence, the figures for UUGUAGCAAUAUUACGAAAU were -3.24 ± 0.46 and -2.15 ± 0.4.
Take CACAAGCAAUAUUACGGGAG: the “self-splicing fitness (ln)” value (30 °C) was -1.55 ± 0.065 and the “self-splicing fitness (ln)” value (37 °C) is -1.46 ± 0.076.
On the same counts, the results for CCUGAGCAAUAUUACGACAU are -3.785 ± 0.027 and -2.87 ± 0.042.
On to AAUGAGCAAUAUUACGGAUG, for which the “self-splicing fitness (ln)” value (30 °C) was -3.35 ± 0.17 and the “self-splicing fitness (ln)” value (37 °C) was -2.23 ± 0.22.
Taken in the same sequence, the figures for UACCAGCAAUAUUACGGGAG were -1.64 ± 0.061 and -1.01 ± 0.071.
On the same counts, the results for UGGGAGCAAUAUUACGUGGC are -4.39 ± 0.39 and -1.68 ± 0.23.
As to UCCAAGCAAUAUUACGAGGG, the “self-splicing fitness (ln)” value reads like this: (30 °C) -3.08 ± 0.2; (37 °C) -2.31 ± 0.31.
On the same counts, the results for AAGUAGCAAUAUUACGCCCC are -1.1 ± 0.19 and -1.22 ± 0.22.
In the case of CUUCAGCAAUAUUACGCUUU, the “self-splicing fitness (ln)” value (37 °C) is -2.85 ± 0.31.
As for AUGGAGCAAUAUUACGUUCA, the “self-splicing fitness (ln)” value reads like this: (30 °C) -1.16 ± 0.12; (37 °C) -0.311 ± 0.14.
Taken in the same sequence, the figures for AUUGAGCAAUAUUACGGCCA were -2.29 ± 0.18 and -0.921 ± 0.18.
Taken in the same sequence, the figures for CGGAAGCAAUAUUACGCACC were -2.4 ± 0.32 and -1.19 ± 0.27.
Taken in the same sequence, the figures for GAUAAGCAAUAUUACGGCUU were -0.701 ± 0.1 and -0.0417 ± 0.14.
Take ACCAAGCAAUAUUACGGUAG: the “self-splicing fitness (ln)” value is -4.33 ± 0.16 (30 °C) and -2.5 ± 0.14 (37 °C).
On to CACCAGCAAUAUUACGUUAU, for which the “self-splicing fitness (ln)” value by setting is: (30 °C) -3.86 ± 0.12; (37 °C) -3.32 ± 0.15.
As for CGGUAGCAAUAUUACGUAGU, the “self-splicing fitness (ln)” value is -2.59 ± 0.13 (30 °C) and -1.34 ± 0.16 (37 °C).
Consider AGAGAGCAAUAUUACGGCAG, for which the “self-splicing fitness (ln)” value is, setting by setting: (30 °C) -1.51 ± 0.24; (37 °C) -1.42 ± 0.43.
On the same counts, the results for UCUCAGCAAUAUUACGCCCA are -0.778 ± 0.12 and -1.88 ± 0.18.
Taken in the same sequence, the figures for UUGUAGCAAUAUUACGCCUG were 0.32 ± 0.14 and 0.399 ± 0.15.
With ACGGAGCAAUAUUACGGGCU, the “self-splicing fitness (ln)” value runs as follows: (30 °C) -2.7 ± 0.25; (37 °C) -2.43 ± 0.27.
On the same counts, the results for GAGUAGCAAUAUUACGACAU are -0.282 ± 0.014 and -0.127 ± 0.033.
As for CCUGAGCAAUAUUACGGAGG, the “self-splicing fitness (ln)” value reads like this: (30 °C) -3.56 ± 0.24; (37 °C) -2.54 ± 0.26.
On the same counts, the results for CGUCAGCAAUAUUACGUUUC are -3 ± 0.14 and -3.06 ± 0.21.
GCCAAGCAAUAUUACGACGA: the “self-splicing fitness (ln)” value is -1.84 ± 0.15 (30 °C) and -1.02 ± 0.2 (37 °C).
For the sequence UUAGAGCAAUAUUACGACUG, the “self-splicing fitness (ln)” value is -1.13 ± 0.096 (30 °C) and 0.345 ± 0.14 (37 °C).
For GGGAAGCAAUAUUACGAGGU, for the setting “30 °C”, the “self-splicing fitness (ln)” value was -2.81 ± 0.31.
Take GCAGAGCAAUAUUACGGGAA: the “self-splicing fitness (ln)” value is -2.68 ± 0.19 (30 °C) and -1.96 ± 0.18 (37 °C).
CGCUAGCAAUAUUACGUCGU: the “self-splicing fitness (ln)” value reads like this: (30 °C) -3.7 ± 0.37; (37 °C) -2.87 ± 0.23.
As to AUGUAGCAAUAUUACGGGCG, the “self-splicing fitness (ln)” value by setting is: (30 °C) -1.33 ± 0.091; (37 °C) -1.28 ± 0.1.
On the same counts, the results for GAGUAGCAAUAUUACGAUGU are -2.23 ± 0.11 and -0.716 ± 0.12.
On the same counts, the results for GCCAAGCAAUAUUACGGAUG are -1.24 ± 0.057 and -0.693 ± 0.07.
On the same counts, the results for CUUUAGCAAUAUUACGUGGA are -3.4 ± 0.4 and -3.58 ± 0.31.
On to AGGAAGCAAUAUUACGCACC, for which the “self-splicing fitness (ln)” value is, setting by setting: (30 °C) -1.52 ± 0.16; (37 °C) 0.0459 ± 0.16.
As for ACAAAGCAAUAUUACGUCUG, the “self-splicing fitness (ln)” value is -1.1 ± 0.056 (30 °C) and -0.244 ± 0.074 (37 °C).
ACACAGCAAUAUUACGCCCU: the “self-splicing fitness (ln)” value reads like this: (30 °C) -0.215 ± 0.072; (37 °C) -0.0145 ± 0.077.
For the sequence AGCGAGCAAUAUUACGCGAU, the “self-splicing fitness (ln)” value (30 °C) was -1.78 ± 0.25 and the “self-splicing fitness (ln)” value (37 °C) is -2.2 ± 0.36.
On the same counts, the results for CUGAAGCAAUAUUACGAUAG are -0.213 ± 0.082 and 0.563 ± 0.11.
Taken in the same sequence, the figures for CAUCAGCAAUAUUACGUACC were -2.74 ± 0.3 and -1.63 ± 0.28.
